Measured values from US20170137818A1, “APTAMER INHIBITING BIOLOGICAL ACTIVITY OF AUTOTAXIN BY BINDING WITH AUTOTAXIN, AND USE THEREOF” (RIBOMIC INC., priority 2014, published 2017).

What was measured:
autotaxin [1] = target: T1, autotaxin (Homo sapiens, UniProt Q13822); assay: Biacore surface plasmon resonance, nucleic acid immobilized on SA chip, autotaxin as analyte; type: binding; conditions: nucleic acid immobilized about 1500 RU, autotaxin 0.02 μM as analyte; maximum RU relative to SEQ ID NO: 10
T1 construct: His; purchased R&D
Experimental: Biacore T100 manufactured by GE Healthcare is used for the measurement of binding strength. In one measurement method, an aptamer is first immobilized on a sensorchip. The immobilization amount is set to about 1500 RU. An autotaxin solution as an analyte prepared to 0.020 μM is injected by 20 μL, and binding of the autotaxin to the aptamer is detected.
All nucleic acids shown in SEQ ID NOs: 4-10 were produced by chemical synthesis. The binding activity of these nucleic acids to autotaxin was evaluated by the surface plasmon resonance method. For the measurement, Biacore T100 manufactured by GE Healthcare was used. The SA chips with streptavidin immobilized thereon were used as the sensor chips. Binding thereto was about 1500 RU of 16 nucleotide Poly dT of which biotin was bound to the 5′-terminus. The nucleic acids used as a ligand were added with Poly A (16 nucleotides) to the 3′-terminus, and were immobilized on SA chips by T-A annealing. The nucleic acids (20 μL) were injected at a flow rate of 20 μL/min to immobilize about 1500 RU of the nucleic acids. An autotaxin for analyte was prepared at 0.02 μM, and 20 μL thereof was injected. As a running buffer, solution A (mixed solution of 145 mM sodium chloride, 5.4 mM potassium chloride, 1.8 mM calcium chloride, 0.8 mM magnesium chloride, 20 mM Tris (pH 7.6), 0.05% Tween20) was used.

autotaxin [2] = target: T1, autotaxin; assay: NPP2 inhibitory assay (pNP-TMP substrate); type: biochemical; conditions: mean of 2-3 measurements ± standard deviation, >1.0 = no inhibitory activity up to 1.0 μM
Text: Whether an aptamer inhibits the enzyme activity of autotaxin can be evaluated, for example, by the following test. As a substrate of autotaxin, phosphodiester bond-containing synthetic substrate p-nitrophenyl thymidine 5′-monophosphate (pNP-TMP) (SIGMA) is used. A phosphodiester bond is cleaved by hydrolysis, and p-nitrophenol is liberated. The p-nitrophenol develops a yellow color, and the color is detected. For the assay, a 96-well plate (96-Well EIAsurasshuRIA Polystyrene Plates, Costar) was used, and the amount of the reaction mixture was 200 μL. Nucleic acid was prepared in solution A (see below-mentioned Example 1) (100 μL), pNP-TMP (20 μL) adjusted to 10 mM in the reaction mixture A was added, and the mixture was stirred well and heated at 37° C. for 5 min. On the other hand, 6 ng of autotaxin (Recombinant Human, manufactured by R&D) diluted with solution A was prepared (80 μL), and heated at 37° C. for 5 min. After heating, they were mixed to start an enzyme reaction. The final autotaxin concentration in the reaction solution was 0.3 nM, and the final substrate concentration was 1 mM. A plate containing the reaction mixture was heated at 37° C. for 24 hr, placed in a microplate reader SpectraMax190 (manufactured by Molecular Devices) and the absorbance was determined at wavelength 405 nm. The absorbance when nucleic acid is not added as 100% (A0), an enzyme activity rate was determined from the absorbance (A) of each test substance and according to the following formula.
Enzyme activity rate=(A/A0)×100
(§1) The concentration (IC50) of an inhibitor necessary for inhibiting the enzyme activity by 50% was determined.
Whether these nucleic acids show an autotaxin inhibitory activity was evaluated by the following method. As a substrate of autotaxin, phosphodiester bond-containing synthetic substrate p-nitrophenyl thymidine 5′-monophosphate (pNP-TMP) (SIGMA) was selected (hereinafter to be referred to as NPP2 inhibitory assay). A phosphodiester bond is cleaved by hydrolysis, and p-nitrophenol is liberated. The p-nitrophenol develops a yellow color, and the color is detected. For the assay, a 96-well plate (96-Well EIA/RIA Polystyrene Plates, Costar) was used, and the amount of the reaction mixture was 200 μL. As the reaction mixture, solution A was used. Nucleic acids were prepared in solution A (100 μL), pNP-TMP (20 μL) adjusted to 10 mM in the reaction mixture A was added, and the mixture was stirred well and heated at 37° C. for 5 min. On the other hand, 6 ng of autotaxin diluted with solution A was prepared (80 μL), and heated at 37° C. for 5 min. After heating, they were mixed to start enzyme reaction. The final autotaxin concentration in the reaction solution was 0.3 nM, and the final substrate concentration was 1 mM. A plate containing the reaction mixture was heated at 37° C. for 24 hr, placed in a microplate reader SpectraMax190 (manufactured by Molecular Devices) and the absorbance was determined at wavelength 405 nm. The absorbance when nucleic acids are not added as 100% (A0), an […] was determined from the absorbance (A) of each test substance and according to the following formula.
as §1

autotaxin [3] = target: T1, autotaxin; assay: Biacore surface plasmon resonance, autotaxin immobilized on CM4 chip, nucleic acid as analyte; type: binding; conditions: maximum RU relative to SEQ ID NO: 22
[4] = Table 1, autotaxin 0.3 nM, pNP-TMP 1 mM, 37° C. 24 hr

Row | Molecule | Binding activity by Biacore (autotaxin [1]) | IC50 (autotaxin [2]; [4]) [nM] | Binding activity by Biacore (autotaxin [3]) | IC50 (autotaxin [2]; Table 3) [nM]
1 | 6 (nucleic acid, DNA, backbone and methylation of C not given here) GTGGTCTAGCTGTACTCGGAACCGTACTCAACGGTCAGTACCTTTGCGCCGCAGCAAGCCACAGTCAACGAGCTA | + (not less than that) | 20 | – | –
2 | 8 (nucleic acid, aptamer; DNA, backbone and methylation of C not given here) GTGGTCTAGCTGTACTCCGAAAGCCGGAACCGTGCCAATGGTCGCTACTTCAGCTCCCCACAGTCAACGAGCTA | + (not less than that) | 10 ± 2 | – | –
3 | 9 (nucleic acid, aptamer; DNA, backbone and methylation of C not given here) GTGGTCTAGCTGTACTCAGGCCGGAACCGGTGAAATTGGTCGCCTAATAAGCGAAATCCACAGTCAACGAGCTA | + (not less than that) | 36 ± 4 | – | –
4 | 10 (nucleic acid, aptamer; DNA, backbone and methylation of C not given here) GTGGTCTAGCTGTACTCGCCGGAACCGTACTATGGTCGCGTTGTATGACGCTTGTATCCACAGTCAACGAGCTA | + (not less than that) | 21 ± 6 | – | –
5 | 4 (nucleic acid, aptamer; DNA, backbone and methylation of C not given here) GTGGTCTAGCTGTACTCTCCGGAACCAGAGCAATTTGGTCGAGCGCTATCGGATGGTCCACAGTCAACGAGCTA | + (not less than that) | 16 ± 6 | – | –
6 | 5 (nucleic acid, aptamer; DNA, backbone and methylation of C not given here) GTGGTCTAGCTGTACTCATGGACGGAACCAGAATACTTTTGGTCTCCATTGAGTACGCCACAGTCAACGAGCTA | + (not less than that) | 11 ± 5 | – | –
7 | 22 (nucleic acid, aptamer; DNA, backbone and methylation of C not given here) ACACTCACAGGCGCTGGCCGGAACCGTGCATATGGTCGCCAGCACATCGTGCATGGCCGCTAGT | – | – | + (not less than that) | 30 ± 11
8 | 23 (nucleic acid, aptamer; DNA, backbone and methylation of C not given here) ACACTCACAGGCGCTGGCACGGACCGGAACCGGGACGCTCGGTCGACCGTGCATGGCCGCTAGT | – | – | + (not less than that) | 75
9 | 24 (nucleic acid, aptamer; DNA, backbone and methylation of C not given here) ACACTCACAGGCGCTGGCGAGTCGGAACCGAGCCGATTGGTCACTCGCGTGCATGGCCGCTAGT | – | – | + (not less than that) | 32 ± 4.2
10 | 25 (nucleic acid, aptamer; DNA, backbone and methylation of C not given here) ACACTCACAGGCGCTGGCGACGTCGGAACCGTGTACCATGGTCACGTCGTGCATGGCCGCTAGT | – | – | + (not less than that) | 31 ± 5.7
11 | 20 (nucleic acid, aptamer; DNA, backbone and methylation of C not given here) ACACTCACAGGCGCTGGGGTACGCTCGGAACCGAGGCAATTGGTCAGCGTGCATGGCCGCTAGT | – | – | + (not less than that) | 37 ± 2
12 | 21 (nucleic acid, aptamer; DNA, backbone and methylation of C not given here) ACACTCACAGGCGCTGGCCACCACTGCACCGGAACCGCGAATGTGGTCGTGCATGGCCGCTAGT | – | – | + (not less than that) | 28 ± 11
